# From the DeepSol protein solubility set
# Test: soluble on expression in E. coli; label from the status in PepcDB or PDB records
row,Sequence,soluble on expression in E. coli
1,MRLTIPILKEGGMLMKFGFIGAGKVGFSLGKYLADNNQNVVGYYSIINEEAIEAAKFTGSKYYENMEQLVEDSEVLFLTVPDGQIENLWNQLKSSHKNWMAKYNKPLLNNKIVCHCSGALSSDIFSSIAEYESFGYSIHPLFAVSNRYESYKELSDSYFTIEGNIEKINKMKELFESFGNTVCIISKDDKIKYHGAAAIASNLVVGLIGLSEELLKQCGFDEKSAHNALAPIIKGNVKHIVEEGVVEALTGPIERCDVSTVRKHMSVFDKKTNEIYKAVSKEVLEIAKIKNKDRDYSKMEEVLQ,not soluble
2,MRLTTKGRYAVTAMLDLALHAQQGPVSLADISERQGISLSYLEQLFAKLRRGNLVTSVRGPGGGYQLSRHMSGIHVAQVIDAVNESVDATRCQGQGDCHSGDTCLTHHLWCDLSLQIHEFLSGISLADLVSRQEVQEVALRQDERRCSGKTPRLDKIEASAID,not soluble
3,MRLVYGLGRSGLGVLRFLRKRGLPARFYDDRPREEEVREALALGFQPDWNLEEAYEEVVAAPGVPLDHPHLKRLAARGAKVLGEAELAYRLSPTPIVGITGTAGKTSTTLFTAHLLRAHGLRAREGGNVDPPLVSVVDEAEVAVAELSSFQLERVHAFRPRVAVLLNLGVDHLDRHGTVEAYHAAKLNLLKNLTPEDALVYNRLDPKVRRAAEASPARLYPFTPGSTPRETNLRAVLEATRAYLDLLGRPLDPGAVAEALRTLPEAPHRFQAFARKGGVVFIDDSIATRTEAVRAALEAVPAPIAWILGGEDKGADLAPLLPLLGRVRVALALGRDGPRFARALEGRTEVVVIAEKDGRTAMRKAVEEALSRLEQGSVLLAPLAASFDQFRDYKDRAQAFREAVFALGGEPWTPSSS,soluble
4,MRMKALLIDYGSGNLRSAAKALEAAGFSVAVAQDPKAHEEADLLVLPGQGHFGQVMRAFQESGFVERVRRHLERGLPFLGICVGMQVLYEGSEEAPGVRGLGLVPGEVRRFRAGRVPQMGWNALEFGGAFAPLTGRHFYFANSYYGPLTPYSLGKGEYEGTPFTALLAKENLLAPQFHPEKSGKAGLAFLALARRYFEVL,soluble
5,MRNIIFTGKGGVGKTSVAAATALKAADMGYKTLIMSTDPAHSLGDSLDIELGPSPVKVAENLWGQEVSVFGDLNLNWDVVREHFAHLMASRGIEGVYAEEMGVLPGMEELFSLSYIKRYNEEQKDFDLLVVDCAPTGETLRLLSLPETFGWFIKMIRNIEKYMVKPVIRPLSKKVKKLDDFVAPEEVYEKVDNLFSSTEGIIDLLADGTKTTMRLVMNPEKMVIKESMRALTYLNLYGITVDRITINRVMPDQSPDPYFQQWRNIQQKYIDQINSAFAPIPVAEVPLFNNEVVGLEMLRKVGEKVYGDENPLDIF,not soluble
6,MRNNGALGLTSKSLKNDKIMNVRTKDRGEPSTVKFSPDGRLCAMQRTPTTADVVFLEKTETSLCLELTVNTKSKEPLLAVEWVTNNQLLLVNNHSAELLYINEDKKSSKLLKATNVNAAWAIYYAPSQLLLIANGQSCSYLQPFVVTHSQFTRMKGFEVDFGGSISKENFLEKDAAIATIYGRVYVLVFKYSNRNATVLDLYELPFDAATGPSFKHSLILGFNGGCGIHVIDNLVVVHHQASQKSLIFDIRVSSPSKSHSPLVVTTIESHPQHQPPPALYTNFWFTFLPDIVIDSSGGVMYSIRLKNEHAQLEIADKQTMLEYLARRSNEKKLFVTTLLACLKARALSLRQIRKVFAMLTGVTGKSKSSFFCNGNFKLRQMANLPICRRCSISANCRFAGNFQIRQISDLAEIFIFSKFSVLPETCNSGKLIICRFAGDEEVSLPESYVANIMLQYLRSLFDAEITPEAYLIEMVVETLAEAGEMSKLQQIVTYRVINDSKPLAFLLLSYEARCSTLFQSGVDILARNKASDEIVEVMLEKKQIVDAFRFIDVRNLNDALIPKVVEAANQHCVRQTRYAIKEHLTEKKAKASLYKSIGDELYTAEEVKGASEEQATCALFEI,not soluble
7,MRNTMRSFILRARSAPTDSQRLLDEIGGKCHTEILAHCMMNSLFTAQSHREDVVIHLVLESTRDYSRTITVEANEISDVGGFHEAALIALLVKALDASVGMGKEQTRVVQPGLTVRTISFEALLGELAEHHSLYMMDKKGDSIRDIKIGPNPCFILTDHIPMPKKSGNSMKRLGVEKISLGPKMLFASQCVTLIHNEIDHQEAGW,soluble
8,MRNVELIFIPTPTVGHLVPFLEFARRLIEQDDRIRITILLMKLQGQSHLDTYVKSIASSQPFVRFIDVPELEEKPTLGSTQSVEAYVYDVIERNIPLVRNIVMDILTSLALDGVKVKGLVVDFFCLPMIDVAKDISLPFYVFLTTNSGFLAMMQYLADRHSRDTSVFVRNSEEMLSIPGFVNPVPANVLPSALFVEDGYDAYVKLAILFTKANGILVNSSFDIEPYSVNHFLQEQNYPSVYAVGPIFDLKAQPHPEQDLTRRDELMKWLDDQPEASVVFLCFGSMARLRGSLVKEIAHGLELCQYRFLWSLRKEEVTKDDLPEGFLDRVDGRGMICGWSPQVEILAHKAVGGFVSHCGWNSIVESLWFGVPIVTWPMYAEQQLNAFLMVKELKLAVELKLDYRVHSDEIVNANEIETAIRYVMDTDNNVVRKRVMDISQMIQRATKNGGSSFAAIEKFIYDVIGIKP,soluble
9,MRPDLSRVPGVLGEIARKRASEVAPYPLPEPPSVPSFKEALLRPGLSVIAEVKRQSPSEGLIREVDPVEAALAYARGGARAVSVLTEPHRFGGSLLDLKRVREAVDLPLLRKDFVVDPFMLEEARAFGASAALLIVALLGELTGAYLEEARRLGLEALVEVHTERELEIALEAGAEVLGINNRDLATLHINLETAPRLGRLARKRGFGGVLVAESGYSRKEELKALEGLFDAVLIGTSLMRAPDLEAALRELVG,soluble
10,MRRGMTGLKTLAQQIALIWKNDPQQFESQAVAVMDAVKNRMPGRAKINVDVFSKLELSLRTSFDLQDGGFSGSPKFFNTPALNYLLERFYETGNEEILNFIGLTLKTISIRGIHDLVNGGFFRYSTDTMWIVPHFEKMLYTQTQLMKLFSKMFMLTRDNVYRDMIYDIKRFMDENLYWPGHGYYSGMDADVDGNEGGYYKWSFQDLKVALGQDFEAFRAIFDISEGGNYMDELYGQTGDNLIYFTGSFDEYRRSIEENGSTDMLSRSIEKLREAEKKRKKPSVDKKILTDLNGLAISSLSWAYRATGDKEFLDSAVSVSEFIIKNMIGDYLLHSFFEGSASVKSSLFDYAFLIRGLIDLYTITFDQKYLEEAKKLADEAIKFLFDGKFKLSEEIDDPQIADSEVESPYATIVADLDDLSLLTEDLQYHQIADQALTSVFDAVSRFPSAFPSLEHHHHHH,not soluble
11,MRRNYSRVIDELRTDYGLNLVAIGQRLGTDPRTVGKWWQGKHNPNQESRKKLNRLYREVKETMMTQVNIFEEANDNTKQVMQVITTTNFHGQPLDIYGDIQEPLFLARAVAEMIDYTKTSQGYYDVQAMLRKVDEDEKLKGMALEGTTKNFRSGQKVWFLTEHGLYEVLMRSNKPKAKEFRKAVKNILKEIRLNGYYMQGELVQELAQPSTQKLPGISDLTYILNKLADLVDMDNLADISNGIDRVQQLVKLISL,not soluble
12,MRRRSNRQYVDLSYFRETADALLFDVETNSREFTNEINTVKEEKAKWDERTPQGYTAKPISFEGADIWCSWICTVPGPRGSPWEGGEYEVSVNFHKWPIIPPICEFKTPLHHPNVDLRGSIYLKMLEQEHWSSETSLKKLLREISNLLATPDLTQAANIEAWMEYENQRENYEAKARAYAWTVNPNAVGYMEVSENSGIQRETAKAKLAVQNGAMESDEDDDDLPIDIEN,not soluble
13,MRRSAAPSQLQGNSFKKPKFIPPGRSNPGLNEEITKLNPDIKLFEGVAINNTFLPSQNDLRICSLNLPSEESTREINNRDNCSGKYCFEAPTLATLDPPHTVHSAPKEVAVSKEQEEKSDSLVKYFSVVWCKPSKKKHKKWEGDAVLIVKGKSFILKNLEGKDIGRGIGYKFKELEKIEEGQTLMICGKEIEVMGVISPDDFSSGRCFQLGGGSTAISHSSQVARKCFSNPFKSVCKPSSKENRQNDFQNCKPRHDPYTPNSLVMPRPDKNHQWVFNKNCFPLVDVVIDPYLVYHLRPHQKEGIIFLYECVMGMRMNGRCGAILADEMGLGKTLQCISLIWTLQCQGPYGGKPVIKKTLIVTPGSLVNNWKKEFQKWLGSERIKIFTVDQDHKVEEFIKSIFYSVLIISYEMLLRSLDQIKNIKFDLLICDEGHRLKNSAIKTTTALISLSCEKRIILTGTPIQNDLQEFFALIDFVNPGILGSLSSYRKIYEEPIILSREPSASEEEKELGERRAAELTCLTGLFILRRTQEIINKYLPPKIENVVFCRPGALQIELYRKLLNSQVVRFCLQGLLENSPHLICIGALKKLCNHPCLLFNSIKEKECSSTCDKNEEKSLYKGLLSVFPADYNPLLFTEKESGKLQVLSKLLAVIHELRPTEKVVLVSNYTQTLNILQEVCKRHGYAYTRLDGQTPISQRQQIVDGFNSQHSSFFIFLLSSKAGGVGLNLIGGSHLILYDIDWNPATDIQAMSRVWRDGQKYPVHIYRLLTTGTIEEKIYQRQISKQGLCGAVVDLTKTSEHIQFSVEELKNLFTLHESSDCVTHDLLDCECTGEEVHTGDSLEKFIVSRDCQLGPHHQKSNSLKPLSMSQLKQWKHFSGDHLNLTDPFLERITENVSFIFQNITTQATGT,soluble
14,MRSRERNRRPTLDELDRILTYFEQMRDRRRQEIDMLRVIVFALFSTRRQEEITRIRWDLLNESEQSALVTDMKNPGQKYGNDVWCHMPDEAWRVLQSMPKVADEVFPYNSRSVSASFTRACNFLEIEDLHFHDLRHDGVSRLFEMGWDIPKVASVSGHRDWNSMRRYTHLRGNGDPYAGWQWIERVISGPVIEAQVRVKRRAAGRAPLEHHHHHH,not soluble
15,MRTALLQNLFSLFPFDLHGDCDVPPARDGIRVSCIINFYGRLNVLAGILWSLAQQDFPRSAFEVILVEDRGGSDEGRALAEEFSSRLPIVYAPLDKQYGLMGYSRNFGLERSRGEFILFLDDDTIILQDDFLKTMVAYFDAQPGVSAIMPHGEASFAFVDDRYDFHDPFFMTSRCTAYRRTVLASLGGFMSSFIGQEDVEFVIRFHAAGNRCAAVPQLAYRHPPLYVTNLGKPMAVGSSFYGIRKRYPLVTWLLAVVNCSRHLPLVLAPSRKYREMGRFGLGFLWGVLTAPFRSGSLNYRLEHHHHHH,not soluble
16,MRTILIDWFSDAVREYIFRNEAVHLAVSLVDRALPMFNINKMRFQLVGITSMRIAVKYEEIFPPILSNTRHSFDGAILYWKVRLHRRNAHTILDRIMLCTENELYKKDAECCQTPRAVADRFSFSTLPPI,not soluble
17,MRTLKELERELQPRQHLWYFEYYTGNNVGLFMKMNRVIYSGQSDIQRIDIFENPDLGVVFALDGITMTTEKDEFMYHEMLAHVPMFLHPNPKKVLIIGGGDGGTLREVLKHDSVEKAILCEVDGLVIEAARKYLKQTSCGFDDPRAEIVIANGAEYVRKFKNEFDVIIIDSTDPTAGQGGHLFTEEFYQACYDALKEDGVFSAETEDPFYDIGWFKLAYRRISKVFPITRVYLGFMTTYPSGMWSYTFASKGIDPIKDFDPEKVRKFNKELKYYNEEVHVASFALPNFVKKELGLM,soluble
18,MRTLTIEPLTKDAFAPFGDVIETDGSDHFMINNGSTMRFHRLAEVDTAQPDDKAIISIFRAESLPMPLTIGMLERHPQGSQAFIPLLGNPFLIVVAPVGDAPESALTRAFVSNGRQGVNYHRGVWHHPVLTIEKQDDFLVVDRSGSGNNCDEHYFEENQRLVLDPNPQEGLEHHHHHH,soluble
19,MRTMPDAPALHLTAIDSHAHVFSRGLNLASQRRYAPNYDAPLGDYLGQLRAHGFSHGVLVQPSFLGTDNRYLLSALQTVPGQLRGVVMLERDVEQATLAEMARLGVRGVRLNLMGQDMPDLTGAQWRPLLERIGEQGWHVELHRQVADIPVLVRALQPYGLDIVIDHFGRPDARRGLGQPGFAELLTLSGRGKVWVKVSGIYRLQGSPEENLAFARQALCALEAHYGAERLMWGSDWPHTQHESEVSFGSAVEQFEALGCSAQLRQALLLDTARALFGFELEHHHHHH,soluble
